B1: Spindle assembly abnormal protein 5 (Caenorhabditis elegans), Q20010 (parent)
chain: MNNYDDLPCSIYFKKPTVQEFVDQPRVFEDSEVPAFQEVLQLPQERTKPPVPSTQPIVAAVEVAKKKSCLSAPKPRKEPPSHPALRQKTVAFGKTVNVSQTVEGTSRNSKKVLASTMSAQNTTTTEEQAAENWRDAMKTELQTIRTEIQEETARRQEELNAQNLVKMQELMSNFFQKITIPKQQAIEPVEKDKENFHESPRQSRQQKPASKIASAREVIKRDGVIPPEALTIIEQRLRSDPMFRQQIDNVLADAECDANRAAYSPPPPMSEVRYGSGVNPALMRETLTVERSIRYDNGLASIDSRQWTNERRDNRAPDSYRTYEPDQPCHSLYQKGQSISYYPSEAAGKTTARNNRTGYYVEDSSDHEEDVVVNKRGQNYHEQAVPETPAERERRIREKYARRK
partner: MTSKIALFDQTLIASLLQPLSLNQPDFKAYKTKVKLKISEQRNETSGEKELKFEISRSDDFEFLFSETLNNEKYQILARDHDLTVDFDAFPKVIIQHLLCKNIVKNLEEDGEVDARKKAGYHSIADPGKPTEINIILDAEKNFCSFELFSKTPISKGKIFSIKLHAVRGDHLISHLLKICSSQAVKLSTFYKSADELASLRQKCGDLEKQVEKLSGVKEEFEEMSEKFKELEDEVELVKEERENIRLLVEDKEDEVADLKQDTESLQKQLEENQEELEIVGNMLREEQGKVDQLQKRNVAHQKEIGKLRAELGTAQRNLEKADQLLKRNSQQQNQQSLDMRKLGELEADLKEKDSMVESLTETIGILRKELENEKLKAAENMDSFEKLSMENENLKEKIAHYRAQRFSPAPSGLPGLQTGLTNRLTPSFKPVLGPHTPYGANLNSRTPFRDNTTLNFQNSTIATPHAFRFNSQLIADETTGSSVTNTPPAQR

Variants of: B1
Details: with sas6_caeel sas-6, O62479

effect of a mutation on the interaction	Variant
decreasing interaction	MNNYDDLPCSIYFKKPTVQEFVDQPRVFEDSEVPAFQEVLQLPQERTKPPVPSTQPIVAAVEVAKKKSCLSAPKPRKEPPSHPALRQKTVAFGKTVNVSQTVEGTSRNSKKVLASTMSAQNTTTTEEQAAENWRDAMKTELQTIRTEIQEETARRQEELNAQNLVKMQELMSNFFQKITIPKQQAIEPVEKDKENFHESPRQSRQQKPASKIASAREVIKRDGVIPPEALTIIEQRLRSDPMFRQQIDNVLADAECDANRAAYSPPPPMSEVRYGSGVNPALMRETLTVERSIRYDNGLASIDSRQWTNERRDNRAPDSYRTYEPDQPCHSLYQKGQSISYYPSEAAGKTTARNNRTGYYVEDSSDHEEDVVVNKRGQNYHEQAVPETPAERERRICEKYARRK [R397C]
